Measured values from article PMC3025356, “Mechanism of the Ca^2+-Dependent Interaction between S100A4 and Tail Fragments of Nonmuscle Myosin Heavy Chain IIA” (Journal of Molecular Biology, 2011).
Where “and” joins values, the source holds several entries; their conditions need not be identical. Identical values can stand only once.

Experiments:
[1] = Turbidity of M200 filaments; type: physicochemical
Procedure: Absorption spectra were recorded using a Cary 50 spectrophotometer (Varian Ltd., Walton on Thames, UK). Protein concentrations were calculated from their absorbance at 280 nm, using molar coefficients of 2980 M^− 1 cm^− 1 (M200 and S100A4) and 1490 M^− 1 cm^− 1 (M111), based on their tyrosine content (two residues per chain and one residue per chain, respectively). Myosin fragments were measured in 0.5 M NaCl buffer, and care was taken to correct for the small contribution from turbidity. Protein concentrations are stated in terms of their monomeric polypeptide chain concentration. Under the conditions used for kinetic analysis, S100A4 is predominantly a dimer,[21,25] and M200 and M111 form stable coiled coils; therefore, the molar protein concentrations are half those given in all three cases. Fluorescence emission spectra were also checked, and those preparations containing a detectable shoulder at 340 nm due to contaminating tryptophan-containing proteins were subjected to further purification. F-M16^N concentrations were based on fluorescein absorbance (ɛ490 = 78,000 M^− 1 cm^− 1). […] Quin-2 concentrations were calculated from ɛ354 = 5000 M^− 1 cm^− 1 in the absence of Ca^2+.[39] Turbidity assays used to monitor M200 filament formation and solubilisation with manual mixing were carried out using a 10-mm pathlength and a 0.1-ml microcuvette (105.250-QS; Hellma, Southend on Sea, UK) at a wavelength of 300 nm. For determination of the free Ca^2+ concentration, Fura-2 fluorescence excitation spectra were measured in the same cuvette using the 2-mm path for excitation to minimise inner filter effects. […]
y = m2*(1-((m0^m4)/(m0^ m4+m...
Fig. S5. (a) Turbidity of the M200 fragment (5
M) as a function of [NaCl]. (b) Determination of the critical concentration of M200 in 100 mM NaCl, 10 mM Hepes, 0.1 mM Ca2+ at pH 7.5 and 20 °C. Aliquots of 1 or […]
l of M200 were added to 1 ml buffer and the turbidity reading determined over a 30 s period. A linear fit to the data obtained above 0.3
M indicated a critical concentration of 0.1 […]

S100A4 = biological target: T1, S100A4 (Homo sapiens, UniProt P26447); test: Competition of M32/M16^N with M200 for S100A4 (turbidity); type: biochemical; details: turbidity competition
T1 construct: We used full-length S100A4 for this analysis; made in house; host or cells: Escherichia coli BL21(DE3)
Procedure: Fig. 9 Dissociation of M200 filaments by S100A4. (a) Initially, M200 was added (i) from a concentrated stock in 0.5 M NaCl to give a final concentration of 5 μM M200 (with respect to the polypeptide chain) in 100 mM NaCl, 10 mM Hepes, and 0.1 mM Ca^2+ at pH 7.5 and 20 °C. A biphasic rise in turbidity was recorded for 200 s (continuous line). Then 10 μM S100A4 (with respect to monomer concentration) was added (ii), followed by 0.2 mM EGTA (iii) and 1 mM Ca^2+ (iv). […] (b) M200 was diluted (i) into 100 mM NaCl to form filaments as in (a), then 5 μM S100A4 was added (ii), causing a 54% drop in turbidity. A further 5 μM S100A4 (iii) caused turbidity to fall to almost zero. (c) Stopped-flow records monitoring the dissociation of 5 μM M200 filaments on jumping [NaCl] from 100 mM to 120 mM NaCl. Other components of the buffer were 20 mM Hepes, 1 mM Mg^2+, and 100 μM Ca^2+ at pH 7.5 and 20 °C. […] In the presence of 20 μM S100A4 (lower trace), the turbidity decreased by 87% with a rate constant of 0.2 s^− 1.
Further information on Scheme 2 was obtained from competition assays. […] An independent estimate of K5 based on the Ca^2+ dependence of the turbidity assay yielded a value of 0.003 μM (see Supplementary Data).
The decrease in fluorescence, […]
that F-M16N binding was slightly faster. […]
A second estimate was calculated from the apparent Ca2+ binding constant observed in the turbidity assay […]

T1 sequence (P26447 whole entry): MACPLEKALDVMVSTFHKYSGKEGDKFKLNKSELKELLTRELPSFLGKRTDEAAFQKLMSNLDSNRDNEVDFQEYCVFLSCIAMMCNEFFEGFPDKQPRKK

B1: M200: His-tagged human NM-MHC IIA residues Q1761-E1960, V1913I substitution (protein, UniProt P35579 1761-1960, looked up, variant V1913I)
chain: QINTDLNLERSHAQKNENARQQLERQNKELKVKLQEMEGTVKSKYKASITALEAKIAQLEEQLDNETKERQAACKQVRRTEKKLKDVLLQVDDERRNAEQYKDQADKASTRLKQLKRQLEEAEEEAQRANASRRKLQRELEDATETADAMNREISSLKNKLRRGDLPFVVPRRMARKGAGDGSDEEVDGKADGAEAKPAE
modifications: His tag
notes: His-tagged human NM-MHC IIA residues Q1761-E1960, V1913I substitution
NaCl midpoint of turbidity transition ([1]; 5 μM M200): about 120 mM NaCl
intercept (critical concentration) from 2.5-5 μM data only ([1]; 100 mM NaCl): 0.49 µM
critical concentration ([1]; 100 mM NaCl, 10 mM Hepes, 0.1 mM Ca^2+, pH 7.5, 20 °C): ~0.1 ± 0.04 µM and < 0.2 µM
critical concentration (supplement) ([1]; 100 mM NaCl, 10 mM Hepes, 0.1 mM Ca^2+, pH 7.5, 20 °C, fit above 0.3 μM): 0.1 µM
binding relative to M32 (S100A4): 3 orders of magnitude tighter than M32
